Residue numbers refer to the chain shown, from its start. Numbers in names are those of the source. Each block holds one binder with its values, some of them ahead of it.
Target: calnexin (simian (endogenous in COS7))
Experiment: co-IP

amount coimmunoprecipitated with CNX, percent of wild-type GlyT2: 289%
B1: GlyT2 A277T mutant (rat numbering; rat version of human A275T) (natural protein)
chain: MDCSAPKEMNKPPTNILEATVPGHRDSPRAPRTSPEQDLPAAAPAAAVQPPRVPRSASTGAQTFQSADARACEAQRPGVGFCKLSSPQAQATSAALRDLSEGHSAQANPPSGAAGAGNALHCKIPALRGPEEDENVSVGKGTLEHNNTPAVGWVNMSQSTVVLGTDGIASVLPGSVATTTIPEDEQGDENKARGNWSSKLDFILSMVGYAVGLGNVWRFPYLAFQNGGGAFLIPYLMMLALAGLPIFFLEVSLGQFASQGPVSVWKAIPALQGCGITMLIISVLIAIYYNVIICYTLFYLFASFVSVLPWGSCNNPWNTPECKDKTKLLLDSCVIGDHPKIQIKNSTFCMTAYPNLTMVNFTSQANKTFVSGSEEYFKYFVLKISAGIEYPGEIRWPLAFCLFLAWVIVYASLAKGIKTSGKVVYFTATFPYVVLVILLIRGVTLPGAGAGIWYFITPKWEKLTDATVWKDAATQIFFSLSAAWGGLITLSSYNKFHNNCYRDTLIVTCTNSATSIFAGFVIFSVIGFMANERKVNIENVADQGPGIAFVVYPEALTRLPLSPFWAIIFFLMLLTLGLDTMFATIETIVTSISDEFPKYLRTHKPVFTLGCCICFFIMGFPMITQGGIYMFQLVDTYAASYALVIIAIFELVGISYVYGLQRFCEDIEMMIGFQPNIFWKVCWAFVTPTILTFILCFSFYQWEPMTYGSYRYPNWSMVLGWLMLACSVIWIPIMFVIKMYLAPGRFIERLKLVCSPQPDWGPFLAQHRGERYKNMIDPLGTSSLGLKLPVKDLELGTQC

amount coimmunoprecipitated with CNX, percent of wild-type GlyT2: 188%
B2: GlyT2 Y707C mutant (rat numbering; rat version of human Y705C) (natural protein)
chain: B1 chain with T277A, Y707C

Reference: doi:10.1101/2021.03.24.436638
